The DeepSol protein solubility set

Assay: soluble on expression in E. coli; label from the status in PepcDB or PDB records

Sequence	soluble on expression in E. coli
MAEPWGNELASAAARGDLEQLTSLLQNNVNVNAQNGFGRTALQVMKLGNPEIARRLLLRGANPDLKDRTGNAVIHDAARAGFLDTLQTLLEFQADVNIEDNEGNLPLHLAAKEGHLRVVEFLVKHTASNVGHRNHKGDTACDLARLYGRNEVVSLMQANGAGGATNLQ	soluble
MAESCVKPQLPRPRIPNIRVFQPTTRIPTFTYEQFNESVEILPSRPECLYRRNDPTNRSYRMKKRPPAQIYHCVQCNKHIKYPSKITEHIRKHTGEKPNVCSICNISFSQAHTLKTHMQQHAHEKPYKCSFCTAEFLNVYEKNEHEEQHMHHPNHGETMEENNATTSQFIQVAEPTIQAEPCQIYECSEMCGFQSYEEAEVVEHMTVTHYQQTKKSKEIPKLKNPGFSINFNYFQVQNGLILQDFNGEPEPIYEFYEEQYVQQVPTEIEETPTIKQQSIPYENLHFEHVEAAPGPSEPHLQVVAEGEILYDGEEIVDISNGKSLKEEIQNGDANIYGMIQDLEEEVEDIGNEDEERERVRIMVNPNPPKRGTKSLRDHHEATAATMEMIVDASILELAEPSRHLKQGYPPISKRKNTGKRAENLDWIIDAVAKGVDVSEASPHHRKKPTLHKCEYCGRVDKYPSKIRAHMRTHTGEKPFKCEICGMAFSQKTPMRLHLRRHFDQKPYECDVDGCKERFVSGAILKMHVEKKHLNKKKYVCSRGCGRVFSSAYNQKHHEKKCEQTYVTWVEGEQQSVESGEEDEESNGEYPDDDEEYMDDMIDASTSQPINRVVEHFSEEPVFLHQ	not soluble
MAETDPKSVQDLTAVVQTLLQQMQDKFQTMSDQIIGRIDEMSTRIDDLEKNIADLMTQAGVEEIEGENKVKEGDAS	soluble
MAETQFTRFPFQPFIIEAIKTLRFYKPTEIQERIIPGALRGESMVGQSQTGTGKTHAYLLPIMEKIKPERAEVQAVITAPTRELATQIYHETLKITKFCPKDRMIVARCLIGGTDKQKALEKLNVQPHIVIGTPGRINDFIREQALDVHTAHILVVDEADLMLDMGFITDVDQIAARMPKDLQMLVFSATIPEKLKPFLKKYMENPTFVHVLEHHHHHH	soluble
MAEVAPNSTLYINNLNEKIKIDELRKSLVAVFKQFGEIVSVMCFRTLKMRGQAHVIFKELPAASAAREALNGFPFYEKPMRIQFAREDSDVVAQEKGTYIKREPKYLSEKILKKPKSRKKENGGDGPAPPNKILFCTNLPDSATAEMLEIMFNQFAGLKDIRMVPNRPGIAFVEFDTDSLAIPARTTLNNFKISAEHTMRVDYAKK	soluble
MAEVTILGLGNLLWADEGFGVRAAEKLFEQYADNEKVDVVDGGTQGLALLPWLQQTEKLLIMDAIDFGMAPGSLAMFRDEQVPAYLTAKKLSLHQTSFSEVLALLQLTGGQLSEIVLIGVQPECLDDYGGSLTPQVKAQLMPAVYLAQEVLAQWGITASSAALPTERLNHYSLCMERYEDERPDAQSACRVGDIRVLQREKS	not soluble
MAFELPKLPYAFDALEPHFDKETMEIHHDRHHNTYVTKLNAAVEGTDLESKSIEEIVANLDSVPANIQTAVRNNGGGHLNHSLFWELLSPNSEEKGTVVEKIKEQWGSLEEFKKEFADKAAARFGSGWAWLVVNNGQLEIVTTPNQDNPLTEGKTPILGLDVWEHAYYLKYQNKRPDYIGAFWNVVNWEKVDELYNATK	not soluble
MAFFESDIVQDEAKRLFGDYQQLMQLGSEYGKFDREGKKKFIETMEELMGRYRVFMKRFELSEDFQAKLTVEQLRTQLSQFGITPEQMFEQMNATLERMKAQIELPPSS	not soluble
MAFIESWAKRTWLVPPQMQLYVDYKIKVTEILTNYTSIEEIHSYSIDESFLDITESLNFFYPDIRNRYEQMNLITLDLQREILDKLGLYVTVGMGDNPLLAKLAMDNYAKHNQNMRALIRYLEHHHHHH	not soluble
MAFLPLYIPKGRRLKIVIVGGGYAGIAALVTLHRYSPDAEITLIDPGIDHLKITHLHETFRYPLSDFLVPYAFLEQRFGCRHIRSALAVDESMLCQWQRDRYLQVDDQQVPFDYLLVASGARSFTRNETDERTAADAENIVRLENFFTVSGADLLDRFLATQDRAGNTAPSCISVVGGGATGIQFLFELAGYLRRRRINHGLQLVDDNERVLQRYPGGFARYVEMRMLELDIEFYPGVCFLEQRADTVLLEDKTSGRHFELPSVLSLVFTGNRQDNLIKTNAFGQVMVDGKPLGNIFAAGDCSVYPSLGSNTMTAQSAVRKGKLAARNILRHSGVLKVLEPYLHHDLGYVVSLGPEDAVGWLAVENNVVTGVPALAIKEIVEAQYDLLLSGVDTYLVLEHHHHHH	not soluble
MAFQQPNLQQIFSSVDKDRSGQISSDELQTALSNGTWNPFNPETCRLMIGMFDSNGDGAINFQEFQALWRYINDWTNCFRGFDTDGSGNIDKSELTNALTQFGYRLSPQFYNILMHKFDRSHSNRINFDDFIQLCVVLQTLTAAFRLEIRAKIDLEI	not soluble
MAGFEIQRVESKFFDLDDIIAKSDSTSCTFEIGDLNPDFFQEMLGVSKPTQNADGYGVDAPYWLLESVRSSFSIQLPKAYSVNMQNVLNADSKKLNLSGLQQHFYGNGMQLCRLMKGENPDGALSLARCLVSTLTQRLGEIVSTATHLQSKGEKFDSLETKVFLEGKRCKEDIDTWLRQDNKCSSKKRKRLSL	not soluble
MAGGARDDLAEKMAGEVALSDDPGATLRKWRTDFDVAQTELADELDVSPSVVSDYESGRRDNPGIGVVRRLVVALLDIDENRGGDHIRQHARVLSAGFDSDVVHDLREYSANVGVERVYDAIDAEELFRGSQDTVAGHTVINSIAAITRLSSDEFYQLYGQSTNRALVFTNVTRGESPLVALRVVSPTPNAVILHGLEDEAVWEHAQDLARIDDFSLAITDIELEDLLGGLRELP	not soluble
MAGPSWRHIRAEGLDCSYTVLFGKAEADEIFQELEKEVEYFTGALARVQVFGKWHSVPRKQATYGDAGLTYTFSGLTLSPKPWIPVLERIRDHVSGVTGQTFNFVLINRYKDGCDHIGEHRDDERELAPGSPIASVSFGACRDFVFRHKDSRGKSPSRRVAVVRLPLAHGSLLMMNHPTNTHWYHSLPVRKKVLAPRVNLTFRKILLTKKLEHHHHHH	soluble
MAGRLREMRCELSFLKNADGSACFSQGATCIWASCSGPGDVHASKASDEAMTLDISYRANCGDNKFNVLNNIIHSTLSNAINLELFPHTTISVTVHGIQDDGSMGAVAINGACFALLDNGMPFETVFCGVLIVRVKDELIIDPTAKQEAASTGRVLFSVCKGSDGHPEVCAMDAIGHWDFIQLEAAWSLAQPSASAIFDFYKTVMKRKLSVDEQ	not soluble
MAGWNLEPEYTSLARDFGSLDAVFALQGQQLTRDPLSDVIRVERAGVYYFVKRYVGAGKGLRRYMGKPRVKSEWQNLKRFAKWGIPTAEVVAWGLERNGAAYDRGALITRGLPNTEDLSALAQRKDPRLADRQWVDGISRQLAAYTRIMHDNHFTHNDLKWRNLLVDNEDRLFFIDCPNGAFWWSFMLRYRITKDLACLDKVAKYHLSATQRLRFYLQYRQRARLNAADKKRIRHIVSFFEGRE	not soluble
MAHGFHASVMAITLDKITLTETTLTNPKAVEYQWVRTLYVQGYQPEAINHYIQTCFGGDETFADLFRRVAMHEESLYLLLQYLSCAPSSREF	soluble
MAHHHHHHASVGRFVQTADPAVTALESPPLPTETRLWRQSPDCQSESDSNRVSGSVLDSVKSNGGPKHASTARLHASQDLPTSVTRFLCLSSSSNSAAAKDLRRQLLVVRDCCVALGNKVKGSELLLLGGSQLSRKVEAMADFNSCLGVIFAASLTFTGETEGVAKDTLCSVVEMLKSAQESGDEKVFRAAVVKIVNRILLCTPLRPPARNAAKETARKSAGKQEQHAEQEPKLEDECLDFLTVEDGVPVLLECVWKRWLRYFEDGYVRYVKKLMAEERQALEAAAAAAAADDYNGEEAQYVDGVSATTTQTISTVPLFTTCQDYWKSPASAYAQFCYILLAIFFVRTKDFSLNYLARVTKLVQYFTYQLEFEDGEPIAVRTDTDAEEDSAQSEDEDDDRTPPQQEGPRKEKQVHSLPMPEYDKAVTQRRFRMSRRSSSQGLVPTVVSFKKAEKPRRHCHKCFFTDALPGDLRPSVEAVRQEEAEAAARDSEEHSHLPVVRRSANLDLSEHSISPQREREQLDACDASMESVQGV	soluble
MAHHHHHHGMTRTRSGSLAAGGLNWASLPLKLFAGGNAKFWHPADIDFTRDRADWEKLSDDERDYATRLCTQFIAGEEAVTEDIQPFMSAMRAEGRLADEMYLTQFAFEEAKHTQVFRMWLDAVGISEDLHRYLDDLPAYRQIFYAELPECLNALSADPSPAAQVRASVTYNHIVEGMLALTGYYAWHKICVERAILPGMQELVRRIGDDERRHMAWGTFTCRRHVAADDANWTVFETRMNELIPLALRLIEEGFALYGDQPPFDLSKDDFLQYSTDKGMRRFGTISNARGRPVAEIDVDYSPAQLEDTFADEDRRTLAAASA	soluble
MAHHHHHHMAAAPSATAPKHNYTLGTNASQLELYKYLKTVPPIPELRQAVTIKKYEEASVDDTLYPLIDEHQIIMVVGAFFGDEGKGKTVDAVARHPACTCVARVNSGENAGHTVFDDIGRKYVFNLAPSSLLTPNTRNYVSSECVMDPISFMEREIGQFIKSNMPYKDKLFVGNVFVVTPYHKLLDLLGSAPNSSTLKGMSPIHASKVTKRGIRLDHIFNDEGVLRARLAKDMDTYYGLLKVKGLTDKDVVRRCQEENADGVERVPGYVVDFARAENKIDYLVKLYTERVKNNKDFPRRCDVTHELRAALARGEKLLLEGPQSYWLSNAREKFWESTTSADTTAGGLLASAQFNFQRYKVLVINVHKAPGSSRVGIGANPSSFVPQDYYSAQDIKTLEALPKGGCVDFDKIQNFFYTKAFNTESKTFNGIYEPLEYEDATGKYNIGVAMSIASARHHGECGAVTKKPRVCGFFDCVLHFEVNAVQGPYLSISAVDRGDDYDRIGITIAYVYYDVGNKMVDANGRVYKNGDIIKAGDPVPCEMALYHCYPIVKVINGWKGAPIAASKRRPNEPLPKGVCEFIANVEFFTGAKVISIGNGPRGSDIIYLKQ	soluble
MAHHHHHHMADDEPEYREAANPIEAFIDCARYDEPGDAEALRTLLSNSPSFLNSQDEQGRTALHVAAANGRLKVLETLLGYNPTPDVPNNEGNTALHFAALNNQTAAARLLLRHGWRASARNAFNKTPIQLIYGKQFEDMELLLLGHDDELEQFSGQASQAARGPAVVNEATVQQQPAVEAERATNAEQPRVNPVQKEQESDPTTLLGSVGVDEIE	soluble
MAHHHHHHMADGKAENELMEIEEIAVSDGGAARFAPVEVKSGEEKYNIVWEETGKLLRFDEGENAWKERGQGMAKILQKKEDSGVYMFVFRREGVGKLAAQHYLLRGMTIKVHPQSEKALLWTAFKDYSDDEEGFPERFVLRFASKELADSGLKAFNDALSKTTT	soluble
MAHHHHHHMAFTGPNPSIWVGGLDPDLQEQKLYDYFVRIGPVTSVRVCVDSATQKSLGYGYVNFQDPADAEKALDQAGSKLGSRYLRIAKIQRDPSKRRSGVNNILVKKLPKSVDTYALKEMFSKFGRLTAIGLACDEKGESRGYARISFEREESAVDAVREMDGMEMDGQAIVVERYQAQHRDELLKQFTNLYVKNLDPAVTDEKLRAFFAKYGEVSSAKVRDLGAAQSEAGLGYVAFQKHENAARAVEELNGKECEIAKAGSPLDVSRFRSREERQRDRERQRRERAQQHSKYPNLYVKGFDDTVTSERLEELFQRYGETVSVTVMMDKETGVSRCFGFVSMKDQNAASQAIQELNGSTFLSPRPLFVTYALRKDARRQNLEERSKQFRVRQNPMGGPGMGAMPPIGFMGPQMFNNVNMPFMNPRVPIMPMNGMNGIGGMNGMGGMNGVGGVGGMGGMGGMGGMGGMGGMGGMGGMGSMGGMGGMARPMAPNAMSQMRSRPMPQKPPMQSLMPQQHQQAPPQGQNLAAVLANLNPEQQKNVLGERLYSYIVRSHPSVAAKITGMLLEMDNAEILNMLDSPTMLDSKIAEAQDVLNRHMSV	soluble
